Source: paper PMC11470055

Target: AP-DT/AA-LRRTM2 (UniProt O43300)
Experiment: immunostaining of cells or tissue; Nrxn-binding assay: live COS-7 cells expressing biotinylated AP-LRRTM2 (WT or mutants), BirA-ER and EGFP incubated 20 min with Nrxn solution (2 µg Nrxn-1β-Fc + 1.3 µg AlexaFluor647 anti-human Fc), then labelled with mSA-ATTO565 in Tyrode's solution (2 mM CaCl2, pH 7.4) and imaged live; Nrxn1β-Fc surface intensity normalised to AP-LRRTM2 expression

UniProt O43300, sequence (O43300 34-516 D259A/T261A): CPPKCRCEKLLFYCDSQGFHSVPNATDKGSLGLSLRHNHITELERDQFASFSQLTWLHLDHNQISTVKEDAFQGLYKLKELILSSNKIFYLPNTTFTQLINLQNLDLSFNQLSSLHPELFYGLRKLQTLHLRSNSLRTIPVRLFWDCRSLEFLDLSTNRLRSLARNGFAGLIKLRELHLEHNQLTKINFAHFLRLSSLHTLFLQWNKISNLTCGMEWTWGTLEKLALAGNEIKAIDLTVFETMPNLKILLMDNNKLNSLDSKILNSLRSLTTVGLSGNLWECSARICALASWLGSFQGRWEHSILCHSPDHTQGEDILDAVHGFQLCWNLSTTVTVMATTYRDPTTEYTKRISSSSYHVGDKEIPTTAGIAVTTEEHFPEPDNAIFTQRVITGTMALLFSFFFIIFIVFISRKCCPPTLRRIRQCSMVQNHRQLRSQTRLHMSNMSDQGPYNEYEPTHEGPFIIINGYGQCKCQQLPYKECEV

- percent loss of Nrxn1β-Fc binding against AP-LRRTM2-WT: 50%
Substance: Nrxn1β-Fc (-SS4) (Fc fusion)
